This series deals with the molecule itself. The series can be described thus: SEC; purified tetramers on Superose 6 Increase 10/300 GL, 50 mM Tris, 150 mM NaCl, pH 7.4, 5 mM EDTA, 0.5 ml/min. A general note: In gel filtration, larger molecules generally elute earlier.

Positions count from the first letter of the chain named. Names and notes keep the numbering of the source.

B1: C1r p.S654A (enzymatically inactive proenzyme C1r 'WT') (enzyme, human, UniProt P00736 18-705, looked up)
chain: SIPIPQKLFGEVTSPLFPKPYPNNFETTTVITVPTGYRVKLVFQQFDLEPSEGCFYDYVKISADKKSLGRFCGQLGSPLGNPPGKKEFMSQGNKMLLTFHTDFSNEENGTIMFYKGFLAYYQAVDLDECASRSKSGEEDPQPQCQHLCHNYVGGYFCSCRPGYELQEDTHSCQAECSSELYTEASGYISSLEYPRSYPPDLRCNYSIRVERGLTLHLKFLEPFDIDDHQQVHCPYDQLQIYANGKNIGEFCGKQRPPDLDTSSNAVDLLFFTDESGDSRGWKLRYTTEIIKCPQPKTLDEFTIIQNLQPQYQFRDYFIATCKQGYQLIEGNQVLHSFTAVCQDDGTWHRAMPRCKIKDCGQPRNLPNGDFRYTTTMGVNTYKARIQYYCHEPYYKMQTRAGSRESEQGVYTCTAQGIWKNEQKGEKIPRCLPVCGKPVNPVEQRQRIIGGQKAKMGNFPWQVFTNIHGRGGGALLGDRWILTAAHTLYPKEHEAQSNASLDVFLGHTNVEELMKLGNHPIRRVSVHPDYRQDESYNFEGDIALLELENSVTLGPNLLPICLPDNDTFYDLGLMGYVSGFGVMEEKIAHDLRFVRLPVANPQACENWLRGKNRMDVFSQNMFCAGHPSLKQDACQGDAGGVFAVRDPNTDRWVATGIVSWGIGCSRGYGFYTKVLNYVDWIKKEMEEED
notes: also called C1r WT with additional p.S654A mutation; source: 293-F cells co-transfected with C1s, purified as part of the tetramer as described (19)
For orientation: stoichiometry N means a count of units in the complex or per binding partner. For the protein B1, the “stoichiometry N” value was found to be 2.

B2: C1r p.(D290G) with additional p.S654A mutation (enzyme, human, UniProt P00736 18-705, looked up)
chain: B1 chain with D273G
notes: also called c.869A>G; source: 293-F cells co-transfected with C1s, purified as part of the tetramer as described (19)
For the protein B2, the “stoichiometry N” value is 2.

These data come from PMC6848165, “C1R Mutations Trigger Constitutive Complement 1 Activation in Periodontal Ehlers-Danlos Syndrome” (Frontiers in Immunology, 2019).
